The chains are these.
B1: HDV Ribozyme (parent)
chain: GGCCGGCAUGGUCCCAGCCUCCUCGCUGGCGCCGGCUGGGCAACAUUCCGAGGGGACCGUCCCCUCGGUAAUGGCGAAUGGGACCCA

Drawing on the RNAGym collection of RNA variant scans (doi:10.7554/elife.80360), this text covers self-cleavage for 32 variants.

This data set covers variants of B1. As to the kind of experiment: self-cleavage, relative activity (ratio to wild type); higher = more cleavage; co-transcriptional.
As to GGCCGGCAUGGUCCCAGCCUCCUAGCUGGCGCCGCCUGGGCAACAUUCCGAGGGGACCGUCCCCUCGGUAAUGGCGAAUGGGACCCA [C24A G35C], the self-cleavage was 0.0692.

Regarding GGCCGGCAUGGUCCCAGCCUCCUGGCUGGCGCCGGCUGGGCAAAAUUCCGAGGGGACCGUCCCCUCGGUAAUGGCGAAUGGGACCCA [C24G C44A], the self-cleavage amounted to 0.0297. In the case of GGCCGGCAUGGUCCCAGCCUCCUGGCUGGCGCCGGCUGGGCAAUAUUCCGAGGGGACCGUCCCCUCGGUAAUGGCGAAUGGGACCCA [C24G C44U], the self-cleavage is 0.0978. With GGCCGGCAUGGUCCCAGCCUCCUGGCUGGCGCCGGCUGGGCAACAUUCCGAGGGGACCGUGCCCUCGGUAAUGGCGAAUGGGACCCA [C24G C61G] the figure was 0.0264; with GGCCGGCAUGGUCCCAGCCUCCUGGCUGGCGCCGGCUGGGCAACAUUCCGAGGGGACCGUACCCUCGGUAAUGGCGAAUGGGACCCA [C24G C61A], 0.112. The value for GGCCGGCAUGGUCCCAGCCUCCUAGCUGGCGACGGCUGGGCAACAUUCCGAGGGGACCGUCCCCUCGGUAAUGGCGAAUGGGACCCA [C24A C32A] was 0.106; that for GGCCGGCAUGGUCCCAGCCUCCUGGCUGGCGCCGGCUGGGCAACAUUCCGAGGGGAUCGUCCCCUCGGUAAUGGCGAAUGGGACCCA [C24G C57U] was 0.14; that for GGCCGGCAUGGUCCCAGCCUCCUAGCUGGCGCCGGCUGGGCAACAUUCCGAGGGGACCGUCCCCUCGGUAAUGGCGAAUGGGACACA [C24A C85A] was 0.591. Turning to GGCCGGCAUGGUCCCAGCCUCCUGGCUGGGGCCGGCUGGGCAACAUUCCGAGGGGACCGUCCCCUCGGUAAUGGCGAAUGGGACCCA [C24G C30G], the self-cleavage was 0.0875.

Consider GGCCGGCAUGGUCCCAGCCUCCUGGCUGGCGCCGGCUGGGCAACAUUCCGAGGGGACCGUCACCUCGGUAAUGGCGAAUGGGACCCA [C24G C62A], for which the self-cleavage was determined as 0.0272. Take GGCCGGCAUGGUCCCAGCCUCCUAGCUGGCGCCGGGUGGGCAACAUUCCGAGGGGACCGUCCCCUCGGUAAUGGCGAAUGGGACCCA [C24A C36G]: the self-cleavage stood at 0.0678. GGCCGGCAUGGUCCCAGCCUCCUAGCUGGCGCCGGUUGGGCAACAUUCCGAGGGGACCGUCCCCUCGGUAAUGGCGAAUGGGACCCA [C24A C36U]: the self-cleavage was determined as 0.254. Take GGCCGGCAUGGUCCCAGCCUCCUAGCUGGCGCCGGCUGGGGAACAUUCCGAGGGGACCGUCCCCUCGGUAAUGGCGAAUGGGACCCA [C24A C41G]: the self-cleavage amounted to 0.536. Regarding GGCCGGCAUGGUCCCAGCCUCCUAGCUGGCGCCGGCUGGGCAAAAUUCCGAGGGGACCGUCCCCUCGGUAAUGGCGAAUGGGACCCA [C24A C44A], the self-cleavage was determined as 0.217.

In the case of GGCCGGCAUGGUCCCAGCCUCCUAGCUGGCGCCGGCUGGGCAACAUUCCGAGGGGACCGUCCCCUCGGUAAUGGCGACUGGGACCCA [C24A A78C], the self-cleavage was 0.133. As for GGCCGGCAUGGUCCCAGCCUCCUGGCUGGCGCCGGCUGGGCUACAUUCCGAGGGGACCGUCCCCUCGGUAAUGGCGAAUGGGACCCA [C24G A42U], the self-cleavage was 0.

For GGCCGGCAUGGUCCCAGCCUCCUGGCUGGCGCCGGCUGGGCGACAUUCCGAGGGGACCGUCCCCUCGGUAAUGGCGAAUGGGACCCA [C24G A42G], the self-cleavage came out at 0.185. The value for GGCCGGCAUGGUCCCAGCCUCCUGGCUGGCGCCGGCUGGGCAACAUUCCGAGGGGACCGUCCCCUCGGUAAUGGCGAAUGGGACACA [C24G C85A] was 0.141; that for GGCCGGCAUGGUCCCAGCCUCCUGGCUGGCGCCGGCUGGGCAACAUUCCGAGGGGACCGUCCCCUCGGUAAUGGCGAAUGGGACUCA [C24G C85U] was 0.107. With GGCCGGCAUGGUCCCAGCCUCCUAGCUGGCGCCGGCUGGGCAACAUUCCGAGGGGACCGUCCCCUCGGUAAUGGCGAAUGGGAGCCA [C24A C84G] the figure was 0.563; with GGCCGGCAUGGUCCCAGCCUCCUAGCUGGCGCCGGCUGGGCAACAUUCCGAGGGGACCGUCCCCUCGGUACUGGCGAAUGGGACCCA [C24A A71C], 0.38.

As for GGCCGGCAUGGUCCCAGCCUCCUAGCUGGCGCCGGCUGGGCAACAUUCCGAGGGGACCGUCCCCUCGGUAUUGGCGAAUGGGACCCA [C24A A71U], the self-cleavage was determined as 0.731. GGCCGGCAUGGUCCCAGCCUCCUAGCUGGCGCCGGCUGGGCAACAUUCCGAGGGGACCGUCCCCUCGGUAGUGGCGAAUGGGACCCA [C24A A71G]: the self-cleavage was 0.61. Regarding GGCCGGCAUGGUCCCAGCCUCCUAGCUGGCGCCGGCUGGGCAACAUUCCGAGGGGACCGACCCCUCGGUAAUGGCGAAUGGGACCCA [C24A U60A], the self-cleavage worked out at 0.535. The value for GGCCGGCAUGGUCCCAGCCUCCUAGCUGGCGCCGGCUGGGCAACAUUCCGAGGGGACCGUCCCCUCGGUAAUGCCGAAUGGGACCCA [C24A G74C] was 0.0326; that for GGCCGGCAUGGUCCCAGCCUCCUAGCUGGCGCCGGCUGGGCAACAUUCCGAGGGGACCGUCCCCUCGGGAAUGGCGAAUGGGACCCA [C24A U69G] was 0.623; that for GGCCGGCAUGGUCCCAGCCUCCUAGCUGGCGCCGGCUGGGCAACAUUCCGAGGGGACCGUCCCCUCGGCAAUGGCGAAUGGGACCCA [C24A U69C] was 0.712. GGCCGGCAUGGUCCCAGCCUCCUGACUGGCGCCGGCUGGGCAACAUUCCGAGGGGACCGUCCCCUCGGUAAUGGCGAAUGGGACCCA [C24G G25A]: the self-cleavage was found to be 0.0959. The value for GGCCGGCAUGGUCCCAGCCUCCUGGCUGGCGCCGGCUGGGCAACAUUCCGAGGGGACCGUCCCAUCGGUAAUGGCGAAUGGGACCCA [C24G C64A] was 0.117. For the variant GGCCGGCAUGGUCCCAGCCUCCUAGCUGUCGCCGGCUGGGCAACAUUCCGAGGGGACCGUCCCCUCGGUAAUGGCGAAUGGGACCCA [C24A G29U], the self-cleavage was 0.0369.

As for GGCCGGCAUGGUCCCAGCCUCCUGGAUGGCGCCGGCUGGGCAACAUUCCGAGGGGACCGUCCCCUCGGUAAUGGCGAAUGGGACCCA [C24G C26A], the self-cleavage turned out to be 0.886. GGCCGGCAUGGUCCCAGCCUCCUGGCUGGCGCCGGCUGGGCAACAUUCCGAGGGGACCGUCCCCUCGGUAAUGGCGAUUGGGACCCA [C24G A78U]: the self-cleavage worked out at 0.
